# From publication PMC8137924, “Structural basis for allosteric regulation of Human Topoisomerase IIα” (Nature Communications, 2021)
# B1: full-length human Topo IIα (1–1531) (enzyme, UniProt P11388 1-1531, looked up)
# chain: MEVSPLQPVNENMQVNKIKKNEDAKKRLSVERIYQKKTQLEHILLRPDTYIGSVELVTQQMWVYDEDVGINYREVTFVPGLYKIFDEILVNAADNKQRDPKMSCIRVTIDPENNLISIWNNGKGIPVVEHKVEKMYVPALIFGQLLTSSNYDDDEKKVTGGRNGYGAKLCNIFSTKFTVETASREYKKMFKQTWMDNMGRAGEMELKPFNGEDYTCITFQPDLSKFKMQSLDKDIVALMVRRAYDIAGSTKDVKVFLNGNKLPVKGFRSYVDMYLKDKLDETGNSLKVIHEQVNHRWEVCLTMSEKGFQQISFVNSIATSKGGRHVDYVADQIVTKLVDVVKKKNKGGVAVKAHQVKNHMWIFVNALIENPTFDSQTKENMTLQPKSFGSTCQLSEKFIKAAIGCGIVESILNWVKFKAQVQLNKKCSAVKHNRIKGIPKLDDANDAGGRNSTECTLILTEGDSAKTLAVSGLGVVGRDKYGVFPLRGKILNVREASHKQIMENAEINNIIKIVGLQYKKNYEDEDSLKTLRYGKIMIMTDQDQDGSHIKGLLINFIHHNWPSLLRHRFLEEFITPIVKVSKNKQEMAFYSLPEFEEWKSSTPNHKKWKVKYYKGLGTSTSKEAKEYFADMKRHRIQFKYSGPEDDAAISLAFSKKQIDDRKEWLTNFMEDRRQRKLLGLPEDYLYGQTTTYLTYNDFINKELILFSNSDNERSIPSMVDGLKPGQRKVLFTCFKRNDKREVKVAQLAGSVAEMSSYHHGEMSLMMTIINLAQNFVGSNNLNLLQPIGQFGTRLHGGKDSASPRYIFTMLSSLARLLFPPKDDHTLKFLYDDNQRVEPEWYIPIIPMVLINGAEGIGTGWSCKIPNFDVREIVNNIRRLMDGEEPLPMLPSYKNFKGTIEELAPNQYVISGEVAILNSTTIEISELPVRTWTQTYKEQVLEPMLNGTEKTPPLITDYREYHTDTTVKFVVKMTEEKLAEAERVGLHKVFKLQTSLTCNSMVLFDHVGCLKKYDTVLDILRDFFELRLKYYGLRKEWLLGMLGAESAKLNNQARFILEKIDGKIIIENKPKKELIKVLIQRGYDSDPVKAWKEAQQKVPDEEENEESDNEKETEKSDSVTDSGPTFNYLLDMPLWYLTKEKKDELCRLRNEKEQELDTLKRKSPSDLWKEDLATFIEELEAVEAKEKQDEQVGLPGKGGKAKGKKTQMAEVLPSPRGQRVIPRITIEMKAEAEKKNKKKIKNENTEGSPQEDGVELEGLKQRLEKKQKREPGTKTKKQTTLAFKPIKKGKKRNPWSDSESDRSSDESNFDVPPRETEPRRAATKTKFTMDLDSDEDFSDFDEKTDDEDFVPSDASPPKTKTSPKLSNKELKPQKSVVSDLEADDVKGSVPLSSSPPATHFPDETEITNPVPKKNVTVKKTAAKSQSSTSTTGAKKRAAPKGTKRDPALNSGVSQKPDPAKTKNRRKRKPSTSDDSDSNFEKIVSKAVTSKKSKGESDDFHMDFDSAVAPRAKSVRAKKPIKYLEESDEDDLF
# notes: human DNA topoisomerase IIα (TOP2A gene), full length, residues 1-1531; Homodimer; Tags were removed with P3C (PreScission) protease; also called hTopo IIα; human topoisomerase IIα isoform; source: BHK21 C13-2P cells infected with recombinant MVA-T7 virus, purified (Ni chelating resin, StrepTrap, heparin); not shown: Twin-strep, N-terminal, cleaved; His10, C-terminal, cleaved
# Molecular target: the molecule itself
# Assay: cryo-EM structure; hTopo IIα with 30 bp doubly nicked DNA (1:1, 20 µM), 0.5 mM etoposide, 0.5 mM ADPNP, cross-linked with 1 mM BS3; 20 mM Hepes, 100 mM KAc, 50 mM Na-glutamate, 5 mM MgAc2, 0.5 mM TCEP, pH 7.5, 8 mM CHAPSO; single-particle analysis, State 1 (closed) and State 2 (pre-open)
protein,measurement,value
B1,binding result,binds
